Measurements as given in patent US20120142040.

Tested on: H3K4me2-biotin peptide (1ARTKme2QTARKSTGGKAPRKQLYKbiotin)
Sequence (chain, as listed by the source): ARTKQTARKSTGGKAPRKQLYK

GST-LSD1 (prepared in-house)
shift of the mass spectra after the demethylase assay (MassSQUIRM, MALDI mass spectrometry): Upon addition of LSD1, we observed a shift of spectra to greater mass, indicating a mixed population of methylation states
